In the nanobody polyreactivity screen of Harvey et al. (2022):

Assay: yeast display, Sf9 membrane polyspecificity reagent, FACS + sequencing; frameworks hold sequencing errors
In short: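 Genes from sorted yeast were amplified by colony PCR, read by MiSeq 2 × 250 sequencing and filtered on CDR length. These cells carried a synthetic nanobody library in Saccharomyces cerevisiae BJ5465 and were sorted by FACS into low and high (top ~1%) gates on anti-HA and streptavidin fluorescence. Polyreactivity is labelled according to the gate of origin.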

QVQLVESGGGLVQAGGSLRLSCAASGIIFDDYAMGWYRQAPGKERELVAAITTSGGRTYYADSVKGRFTISRDNAKNTVYLQMNSLKPEDTAVYYCATRRGRAYRWMNYWGQGTQVTVSS
polyreactivity (PSR sort gate): high polyreactivity

QVQLVESGGGLVQAGGSLRLSCAASGYTFSRYAMGWYRQAPGKERELVAAISHSAGRTYYADSVKGRFTISRDNAKNTVYLQMNSLKPEDTAVYYCATAYKPDTRDDYWGQGTQVTVSS
polyreactivity (PSR sort gate): high polyreactivity

QVQLVESGGGLDQAGGSLRLSSAASGFTISWYDMGWYRQAPGKERELVAAITYTGGSTYYADSVKGRFTISRDNAKNTVYFQMNSLKPEDTAVYYCNADEPSSNMDYWGQGTQVTVSS
polyreactivity (PSR sort gate): low polyreactivity

QVQLVESGGGLVQAGGSLRLSCAASGRIFAYNTMGWYRQAPGKERELVAVITSGGSTNYADSVNGRFTISRDNAKNTVYLQMNSLKPEDTAVYYCAKRPYGRSGGSRYDYWGQGTQVTVSS
polyreactivity (PSR sort gate): high polyreactivity

QVQLVESGGGLVQAGGSLRLSCAASGSIFPYNAMGWYRQAPGKERELVAAISRSGGSTYYADSVKGRFTISRDNAKNTVYLQMNSLKPEDTAVYYCAAYSLYWRDDYWGQGTQVTVSS
polyreactivity (PSR sort gate): high polyreactivity

QVQLVESGGGLVQAGGSLRLSCAASGSIFWAYTMGWYRQAPGKERELVAAISASGGSTYYADSVKGRFTISRDNAKNTVYLQMNSLKPEDTAVYYCAAVYDLGYYGPIWAIVLDDYWGQGTQVTVSS
polyreactivity (PSR sort gate): low polyreactivity

QVQLVESGGGLVQAGGSLRLSCAASGITFETYAMGWYRPAPGTVRELVAAISSGTDDTYYADSVKGRFTISRDNATNTVYLQMNSLKPEDTAVYYCAALGYATGSWRYYYWGQGTQVTVSS
polyreactivity (PSR sort gate): low polyreactivity

QVQLVESGGGLVQAGGSLRLSCAASGGIFDTYAMGWYRQAPGKERELVAAISSTGGSTYYADSVKGRFTISRDNAKNTVYLQMNSLKPEDTAVYYCNAVLARFWRYRRWEYDYWGQGTQVTLSS
polyreactivity (PSR sort gate): high polyreactivity

QVQLVESGGGLVQAGGRLRLSCAASGLTFGWYTMGWYRQAPGKERELVADITWSGGSTYYADSVKGRFTISRDNAKNTVYLQMNSLKPEDTAVYYCNKVWFYLEYGFSILYDYWGQGTQVTVSS
polyreactivity (PSR sort gate): low polyreactivity

QVQLVESGGGLVQAGGSLRLSCAASGITFRRNAMGWYRQAPGKERELVAAISLSGTRTYYADSVKGRFTISRDNAKNTVYLQMNSLKPEDTAVYYCAASYYNKFDYWGQGTQVTVSS
polyreactivity (PSR sort gate): high polyreactivity

QVQLVESGVGLVKAGGSLRLTCAASGSIFDNYPMGWYIQAPGKERELVAAISGRGGSTYYADSVKGRFTISRDNAKNSVYLQMNSLKPEVTAVYYCNALVHQTYYDYEYWGQGTQVTVSS
polyreactivity (PSR sort gate): high polyreactivity

QVQLVESGGGLVQAGGSLRLSCAASGLTFHPYAMGWYRQAPGKERELVAAISSRGTSTYYADSVKGRFTISRDNAKNTVYLQMNSLKPEDTAVYYCAARYRLYYYFRFDWGQGTQVTVSS
polyreactivity (PSR sort gate): high polyreactivity

QDQLVESGGGLVQAGGSLRLSCAPSGRIFTTYGMGWYSQAPGKERELVAAISRSGGSTYYADSVKGRFTISRDNAKNTVYLQMNSLKPEDTAVYYCAAVPTSNSFRSSFYYWGQGTQVTVSS
polyreactivity (PSR sort gate): high polyreactivity

QVQLVESGGGLFQAGGSLRLSCAASGFIFSYNAMGWYRQAPGKERELVAAISSSGGTTYYADSVKGRFTISRDNAKNTVYLQMNSLKPEDTAVYYCNARWHAEYDYWGQGTQVTVSA
polyreactivity (PSR sort gate): low polyreactivity

QFQLVESGGGLVQAGGSLRLSCAASGRIFFIYAMGWYRQAPGKERELVAGINRTGGSTNYADSVKGRFTISRDNAKNTVYLQMNSLKPEDTAVYYCAADIYDGGFDYWGQGTQVTVSS
polyreactivity (PSR sort gate): low polyreactivity

QVQLVESGGGLVQAGGSLRLSCAASGRTFVTNAMGWYRQAPGKERELVAAISSNGGSTYYADSVKGRFTISRDNAKNTVYLQMNSLKPEDTAVYYCNAEGQPLYVSWHDHRYIYGFDYWGQGTQVTVSS
polyreactivity (PSR sort gate): low polyreactivity

QVQLVESGGGLVQAGGSLRLSCAASGIIFAYAMGWYRQAPGKERELVAAISGRDGSTYYADSVKGRFTISRDNAKNTVYLQMNSLKPEDTAVYYCAKRISYLPVEMDYWGQGTQVTVSS
polyreactivity (PSR sort gate): low polyreactivity

QVQLVESGGGLVQAGGSLRLSCAASGFTFPSYAMGWYRQAPGKDREFVAGITKGGGNTYYADSVKGRFTISRDNAKNNVYLQMNSLKPEDTAVYYCAKCPLPRAGVKFDYWGQGTQVTVSS
polyreactivity (PSR sort gate): low polyreactivity

QVQLVESGGGLVQAGGSLRLSCAASGSIFSGWYTMGWYRQAPGKERELVASISISTTDTYYADSVKGRFTISRDNAKNTVYLQMNSLKPEDTAVYYCADEVTSFSFGGDATEYYWGQGTQVTVSS
polyreactivity (PSR sort gate): low polyreactivity

QVQLVESGGGLVQAGGSLRLICAASGSTFTGYAMGWYRQAPGKERELVAAINWRGGTTYYADSVKGRFTISRDNAKNTVYLQMNSLKPEDTAVYYCNKYRISGLSKFYYWGQGTQVTVSS
polyreactivity (PSR sort gate): high polyreactivity

QVLLQESGGGLVQPGGSLLLSCAASGNIFSAGGMGWYRQAPVNEPELVAGIGTGTSTNYADSVKGRFTISRDNAKNTVFLQMNSLNPEDTAVYYCAAAYYSGLSHWYWGQGTQVTVSS
polyreactivity (PSR sort gate): low polyreactivity

QVQLVESGGGLVQAGGSLRLSCAASGSIFTGYAMGWYRQAPGKERELVAAISWSGGSTSYADSVKGRFTISLDKAKNDVYLQMNSLKPEDTAVYYCAAERKARTYGYWGQGTEVTVSS
polyreactivity (PSR sort gate): high polyreactivity

QVQLVESGGRLVQAGGSLRLSCAASGFTFNYNAMGWYRQAPGKERELVAAISRSGGSTYYADSVMGRFTISRDNAKNTFYLQMNSLKPEDTAVYYFAAVRDIGKYGYWGQGTQVTVSS
polyreactivity (PSR sort gate): high polyreactivity

QVQLVESGGGLVQAGGSLRVSCAASGRTIRWNAMGWSRQAPGKEREMVAAITSRGGSTYYADSVKGRFTISRDNAKNTVYLQMNSLKPEDTAVYYCAKQPKPPPVTGYDYWGQGTQVTVSS
polyreactivity (PSR sort gate): high polyreactivity

QVQLVESGGGLVQAGVRLRLSFAASGFTFRLYTMGWYRQAPGKERELVAAITYSGDSTYYADSVKGRFTISRDNAKNTVYLQMNSLKPEDTAVYYCAARKYYARYYWGQGTQVTVSS
polyreactivity (PSR sort gate): high polyreactivity

QVQLVESGGGLVQAGGSLRLSCAASGRTFSVNAMGWYRQAPGKERELVAAISWDGGSTYYADSVKGRFTISRDNAKNTDYLQMNSLKPEDTAVYYCNKDLYYAYDYWRQGTQVTVSS
polyreactivity (PSR sort gate): low polyreactivity

QLQHVESGGGLVQAGGSLRLTCAASGYTYHGYAMGWYRQAPGKERELVAVITQRGGSTSYADSVKGSFTISRDYAKNNVNLQMKSLKPVDTAVYYCNDSAWLVVARTRYGYWGQGTQVTVSS
polyreactivity (PSR sort gate): low polyreactivity

QVQLVESGGGLVQAGGSLRLSCAASGSSFRFYAMGWYRQAPGKERELVATIRYSTGTTYYADSVKGRFTISRDNAKNTVYLQMNSLKPEDTAVYYCAAGYFIYSWRIRFDYWGQGTQVTVSS
polyreactivity (PSR sort gate): high polyreactivity

QVQLVESGGGLVQAGGSLRLSCAASGFTFYRYAMGWYRQAPGKERELVAAITNGGGTYYADSVKGRFTISRDNAKNTVYLQMNSLKPEDTAVYYCAAKSRLPTQGLGIYYWGQGTQVSVSS
polyreactivity (PSR sort gate): high polyreactivity

QVQLEETGGGLVQAGGSLRLSCAASGSIFHYNAMGWYRQAPGKEREFVAAITGGGGTYYADSVKGRCTISRDNAKNTVYFQMNSLKPEDTGVYYCAAQSRTSFRFNYWGQVTQVTVSS
polyreactivity (PSR sort gate): high polyreactivity

QVQLVESGGGLVQAGGSLRLSCAASGSTFRANAMGWYRQAPGKERELVAAITSGGSTNYADSVKGRFTISRDNATNTVYLQMNSLKPEDTAVYYCADESYQEHSFYVYYGYDYWGQGTQVTVSS
polyreactivity (PSR sort gate): low polyreactivity

QVQLVESGGGLVQAGGSLRLSCAASGRIFNAYAMGWYRQAPGKERELVAAISRSGGRTYYADSVKGRFTISRDNAKNNVYLQMNILKPEDTAVYYCAKDFFEHSPVSHTYSSSKYDYWGQGTQVTVSS
polyreactivity (PSR sort gate): low polyreactivity
